This experiment concerns the target actin filaments (UniProt P68135).

Take “Chara braunii myosin XI-1 motor domain construct without IQ motifs (domain or fragment)”: the Vmax of actin-activated ATPase activity, 25 °C (Pi s^−1 head^−1) came to 410.

The record behind these values is paper doi:10.1101/2021.05.06.442907.
